Laboratory results from PMC4731787, “Structural basis for the recognition of two consecutive mutually interacting DPF motifs by the SGIP1 μ homology domain” (Scientific Reports, 2016).
Like-named read-outs stand apart in the source and are kept apart here. Where no end group is shown, it is not given here. GST = glutathione S-transferase fusion tag

B2: Eps15-530–896 (domain or fragment, human, UniProt P42566-1 530-896, looked up)
chain: STSSSETANLNEHVEGQSNLESEPIHQESPARSSPELLPSGVTDENEVTTAVTEKVCSELDNNRHSKEEDPFNVDSSSLTGPVADTNLDFFQSDPFVGSDPFKDDPFGKIDPFGGDPFKGSDPFASDCFFRQSTDPFATSSTDPFSAANNSSITSVETLKHNDPFAPGGTVVAASDSATDPFASVFGNESFGGGFADFSTLSKVNNEDPFRSATSSSVSNVVITKNVFEETSVKSEDEPPALPPKIGTPTRPCPLPPGKRSINKLDSPDPFKLNDPFQPFPGNDSPKEKDPEIFCDPFTSATTTTNKEADPSNFANFSAYPSEEDMIEWAKRESEREEEQRLARLNQQEQEDLELAIALSKSEISEA
notes: also called C-terminal fragment of human Eps15; source: E. coli, purified (Ni Sepharose, thrombin, Glutathione Sepharose, 3C protease, Superdex 200); not shown: GST, N-terminal, cleaved; His tag, C-terminal, cleaved
B4: SGIP1 μ homology domain (residues 552 to 828) (domain or fragment, human, UniProt Q9BQI5-1 552-828, looked up)
chain: LTMGAQDTLPVAAAFTETVNAYFKGADPSKCIVKITGEMVLSFPAGITRHFANNPSPAALTFRVINFSRLEHVLPNPQLLCCDNTQNDANTKEFWVNMPNLMTHLKKVSEQKPQATYYNVDMLKYQVSAQGIQSTPLNLAVNWRCEPSSTDLRIDYKYNTDAMTTAVALNNVQFLVPIDGGVTKLQAVLPPAVWNAEQQRILWKIPDISQKSENGGVGSLLARFQLSEGPSKPSPLVVQFTSEGSTLSGCDIELVGAGYRFSLIKKRFAAGKYLADN
notes: A SeMet-substituted form (E. coli B834(DE3)) was used only for the structure of the domain alone; also called SGIP1 μHD; μHD; source: E. coli BL21-Gold (DE3) or Rosetta2, purified (Glutathione Sepharose, 3C protease cleavage on the column, Superdex 200)

What was measured:
[1] = target: SGIP1 μ homology domain (residues 552 to 828) (human) (UniProt Q9BQI5); test: ITC; VP-ITC, 25 °C, 50 mM Tris-HCl pH 8.0, 50 mM NaCl; for the majority the μHD (SGIP1, its mutants or FCHo1) in the cell, titrated with Eps15 fragments or peptides, for others the reverse (Supplementary Table 2); repeated twice, global fit with SEDPHAT, single-site or two-site model
[2] = target: T1, SGIP1 μHD (residues 552 to 828) (Homo sapiens, UniProt Q9BQI5); test: ITC of Eps15 fragments with the SGIP1 μHD; assay type: binding; conditions: for Kd: 50 mM Tris-HCl pH 8.0, 50 mM NaCl, global fit of two runs
T1 construct: the SGIP1 μHD (residues 552 to 828); GST (N, cleaved yes); made in house; host or cells: Escherichia coli BL21-Gold (DE3) or Rosetta2
T1 sequence (Q9BQI5 552-828): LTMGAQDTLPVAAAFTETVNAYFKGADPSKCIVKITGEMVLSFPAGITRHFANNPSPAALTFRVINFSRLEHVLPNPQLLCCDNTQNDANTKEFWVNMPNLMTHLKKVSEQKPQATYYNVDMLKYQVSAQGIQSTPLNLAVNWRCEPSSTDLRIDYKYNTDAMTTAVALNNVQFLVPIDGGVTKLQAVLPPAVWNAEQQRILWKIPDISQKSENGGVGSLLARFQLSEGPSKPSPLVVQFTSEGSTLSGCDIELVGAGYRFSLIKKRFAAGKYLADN
Protocol: (§1) For the majority of the ITC experiments, the SGIP1 μHD, its mutants, or the FCHo1 μHD, in 50 mM Tris-HCl buffer (pH 8.0) containing 50 mM NaCl, was loaded in the sample cell, in a volume of 1.42 ml, and titrated with various Eps15-derived fragments or peptides in the same buffer, with an initial 5 μl injection and subsequent 10 μl injections, for a total of 25 injections. The titrations were performed while the samples were stirred at 310 r.p.m. at 25 °C. Each injection was followed by an interval of 4 min, to allow baseline stabilization. For the other ITC experiments indicated in Supplementary Table 2, the Eps15-derived fragments or peptides in the sample cell were titrated with the SGIP1 or FCHo1 μHD. All ITC experiments were performed on a VP-ITC microcalorimeter (MicroCal, LLC) and repeated twice, and the data were processed with the program NITPIC[42]. The two data sets from each ITC experiment were analyzed by global weighted least-squares fitting with the program SEDPHAT[43]. Figures for the ITC data were created with the program GUSSI (http://biophysics.swmed.edu/MBR/software.html). To obtain the values of the traditional stoichiometric parameter N in our ITC data analyses (Supplementary Table 2), we used the values of the parameters of the incompetent fractions of proteins and ligands. […] The values of the incompetent fractions are between 0 and 1, whereas the other parameter affecting the traditional parameter N, the number of sites, was fixed as 1 and 2, for the single- and two-site models, respectively. Thus, in the two-site model, the values of N for the first and second sites are identical in our ITC data analyses (Supplementary Table 2).

SGIP1 µHD A565E = test: ITC of Eps15 fragments with the SGIP1 μHD A565E mutant; assay type: binding, human; conditions: for Kd: 25 °C, 50 mM Tris-HCl pH 8.0, 50 mM NaCl, mutant μHD in cell titrated with fragment, two runs
Protocol: as §1

SGIP1 µHD A563E = test: ITC of Eps15 fragments with the SGIP1 μHD A563E mutant; assay type: binding, human; conditions: for Kd: 25 °C, 50 mM Tris-HCl pH 8.0, 50 mM NaCl, mutant μHD in cell titrated with fragment, two runs
Protocol: as §1

Eps15-530–896 = target: B2; test: SEC; analytical gel filtration on Superdex 200, 50 mM Tris-HCl pH 8.0, 50 mM NaCl, 5 mM DTT, 5% glycerol; fractions on SDS-PAGE; Eps15-530–896 and μHD mixed 1:2.4; Eps15-530–896, μHD and appendage domain mixed 1:3:6; conditions: both partners purified
[3] = target: B4; test: ITC; VP-ITC, 25 °C, 50 mM Tris-HCl pH 8.0, 50 mM NaCl; for the majority the μHD (SGIP1, its mutants or FCHo1) in the cell, titrated with Eps15 fragments or peptides, for others the reverse (Supplementary Table 2); repeated twice, global fit with SEDPHAT, single-site or two-site model; conditions: both partners purified
[4] = target: T2, SGIP1 µ homology domain (µHD), residues 552 to 828 (human, UniProt Q9BQI5-1 552-828); test: ITC; µHD, µHD mutant or α-adaptin appendage domain in the sample cell, titrated with the Eps15 fragment or peptide; 50 mM Tris-HCl (pH 8.0), 50 mM NaCl, 25 °C; VP-ITC; two data sets fitted globally (NITPIC, SEDPHAT); single-site model; conditions: both partners purified
T2 construct: pGEX-6P-1 construct cut with 3C protease; also called SGIP1 µHD; human SGIP1 µHD (aa552–828); source: E. coli BL21-Gold (DE3) or Rosetta2, purified (Glutathione Sepharose 4B, 3C protease cleavage, Superdex 200)
T2 sequence (looked up): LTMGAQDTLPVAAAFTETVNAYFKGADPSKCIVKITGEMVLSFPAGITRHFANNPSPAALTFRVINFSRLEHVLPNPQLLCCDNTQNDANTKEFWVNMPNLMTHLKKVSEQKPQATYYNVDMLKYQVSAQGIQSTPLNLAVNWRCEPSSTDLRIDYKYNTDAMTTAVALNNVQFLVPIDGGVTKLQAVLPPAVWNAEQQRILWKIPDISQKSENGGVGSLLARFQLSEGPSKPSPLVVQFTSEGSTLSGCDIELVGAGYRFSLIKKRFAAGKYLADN

[5] = target: T3, FCHo1 µ homology domain (µHD), residues 623 to 889 (human, UniProt O14526-1 623-889); test: as above; conditions: both partners purified
T3 construct: also called FCHo1 µHD; human FCHo1 µHD (aa623–889); source: E. coli, expressed and purified in the same manner as the SGIP1 µHD
T3 sequence (looked up): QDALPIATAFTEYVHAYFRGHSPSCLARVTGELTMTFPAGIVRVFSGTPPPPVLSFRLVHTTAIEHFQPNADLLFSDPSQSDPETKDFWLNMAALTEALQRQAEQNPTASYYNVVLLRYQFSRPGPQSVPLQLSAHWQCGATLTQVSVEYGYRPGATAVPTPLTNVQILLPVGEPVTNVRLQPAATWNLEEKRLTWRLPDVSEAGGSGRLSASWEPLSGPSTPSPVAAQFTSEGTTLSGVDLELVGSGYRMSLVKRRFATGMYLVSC

[6] = 25 °C, μHD in cell titrated with fragment, single-site model
[7] = 25 °C, μHD in cell titrated with fragment, single-site model, ± 68.3% confidence interval
[8] = 25 °C, fragment in cell titrated with μHD, single-site model
[9] = 25 °C, fragment in cell titrated with μHD, two-site model, first site
[10] = 25 °C, fragment in cell titrated with μHD, two-site model, second site

Eps15 two-DPF fragment, Asp of the C-terminal DPF motif replaced with Asn (peptide)
fold reduction of the binding against the unreplaced fragment [1]: 2.4 fold

Eps15 two-DPF fragment, Asp of the N-terminal DPF motif replaced with Asn (peptide)
fold reduction of the binding against the unreplaced fragment [1]: 3.4 fold

GST-Eps15-628–644: GST-tagged Eps15 fragment, residues 628–644, 3 DPF motifs ({GST}-SDPFKDDPFGKIDPFGG)
-TΔS [2, 6]: -9.033 kJ/mol
ΔG [2, 6]: -35.33 kJ/mol
ΔH [2, 7]: -26.3 ± 0.602 kJ/mol
Kd (SGIP1 µHD A565E): below detection limit
Kd (SGIP1 µHD A563E): below detection limit

GST-Eps15-628–654: GST-tagged Eps15 fragment, residues 628–654, 5 DPF motifs ({GST}-SDPFKDDPFGKIDPFGGDPFKGSDPFA)
-TΔS [2, 6]: -7.468 kJ/mol
ΔG [2, 6]: -34.2 kJ/mol
ΔH [2, 7]: -26.74 ± 0.749 kJ/mol
binding to SGIP1 μHD with Ala565 replaced by Glu (in words) (SGIP1 µHD A565E): abolished the binding
Kd (SGIP1 µHD A565E): below detection limit
binding to SGIP1 μHD with Ala563 replaced by Glu (in words) (SGIP1 µHD A563E): abolished the binding
Kd (SGIP1 µHD A563E): below detection limit

B1: appendage domain of human α-adaptin (residues 711 to 955) (domain or fragment, UniProt O95782-2 711-955, looked up)
chain: IGPPIPEADELLNKFVCKNNGVLFENQLLQIGVKSEFRQNLGRMYLFYGNKTSVQFQNFSPTVVHPGDLQTQLAVQTKRVAAQVDGGAQVQQVLNIECLRDFLTPPLLSVRFRYGGAPQALTLKLPVTINKFFQPTEMAAQDFFQRWKQLSLPQQEAQKIFKANHPMDAEVTKAKLLGFGSALLDNVDPNPENFVGAGIIQTKALQVGCLLRLEPNAQAQMYRLTLRTSKEPVSRHLCELLAQQF
notes: also called α-adaptin appendage domain; source: E. coli, purified in the same manner as for the SGIP1 μHD
binding result (Eps15-530–896): binds

B2
Kd ([2]; 25 °C, Eps15 fragment in cell titrated with SGIP1 μHD, two-site model, second site, 68.3% confidence interval, read-out: Kd, second site): 27.3 ± 15.7 µM
Kd ([2]; 25 °C, Eps15 fragment in sample cell titrated with SGIP1 μHD, single-site model, ± 68.3% confidence interval, read-out: Kd): 4.5 ± 2.2 µM
-TΔS [2, 8]: 15.39 kJ/mol
ΔG [2, 8]: -30.53 kJ/mol
ΔH ([2]; 25 °C, fragment in cell titrated with μHD, single-site model, ± 68.3% confidence interval): -45.915 ± 2.11 kJ/mol
-TΔS [2, 9]: -17.98 kJ/mol
ΔG [2, 9]: -39.22 kJ/mol
ΔH ([2]; 25 °C, fragment in cell titrated with μHD, two-site model, first site, ± 68.3% confidence interval): -21.24 ± 1.29 kJ/mol
-TΔS, second site [2, 10]: 11.48 kJ/mol
ΔG, second site [2, 10]: -26.05 kJ/mol
ΔH, second site ([2]; 25 °C, fragment in cell titrated with μHD, two-site model, second site, 68.3% confidence interval): -37.53 ± 6.874 kJ/mol
N (binding ratio of Eps15 fragment to μHD) ([2]; fragment in cell titrated with μHD, single-site model, ± 68.3% confidence interval): 0.76 ± 0.11
N (binding ratio of Eps15 fragment to μHD) ([2]; fragment in cell titrated with μHD, two-site model, first site (N identical for both sites), ± 68.3% confidence interval): 0.96 ± 0.04
N, second site ([2]; fragment in cell titrated with μHD, two-site model, second site (N identical for both sites), ± 68.3% confidence interval): 0.96 ± 0.04
Kd of the high-affinity site (two-site model) [3]: ~0.13 µM

B3: Eps15-640–654 (peptide)
peptide: Ac-YDPFGGDPFKGSDPFA-NH2
notes: artificial N-terminal Tyr; source: synthetic peptide (Eurofins Genomics)
Kd [4]: 2.9 µM
stoichiometry N [4]: 0.66
stoichiometry N [5]: 0.64

B4
binding result (Eps15-530–896): binds

B5: Eps15-618–648 (domain or fragment, human, UniProt P42566-1 618-648, looked up)
chain: DFFQSDPFVGSDPFKDDPFGKIDPFGGDPFK
notes: source: E. coli, purified in the same manner as for the SGIP1 μHD
Kd [3]: ~0.4 µM
